In this test the target is Quiescin-sulfhydryl oxidase (QSOX), recombinant human (human) (UniProt O00391). The test is described as follows: SPR; Biacore 3000; […]; 30 ul/min in PBS, 0.05% Tween 20, 3 mM EDTA at 25°C; 1:1 Langmuir model; […].
Sequence of Quiescin-sulfhydryl oxidase (QSOX), recombinant human (human) (O00391 30-709): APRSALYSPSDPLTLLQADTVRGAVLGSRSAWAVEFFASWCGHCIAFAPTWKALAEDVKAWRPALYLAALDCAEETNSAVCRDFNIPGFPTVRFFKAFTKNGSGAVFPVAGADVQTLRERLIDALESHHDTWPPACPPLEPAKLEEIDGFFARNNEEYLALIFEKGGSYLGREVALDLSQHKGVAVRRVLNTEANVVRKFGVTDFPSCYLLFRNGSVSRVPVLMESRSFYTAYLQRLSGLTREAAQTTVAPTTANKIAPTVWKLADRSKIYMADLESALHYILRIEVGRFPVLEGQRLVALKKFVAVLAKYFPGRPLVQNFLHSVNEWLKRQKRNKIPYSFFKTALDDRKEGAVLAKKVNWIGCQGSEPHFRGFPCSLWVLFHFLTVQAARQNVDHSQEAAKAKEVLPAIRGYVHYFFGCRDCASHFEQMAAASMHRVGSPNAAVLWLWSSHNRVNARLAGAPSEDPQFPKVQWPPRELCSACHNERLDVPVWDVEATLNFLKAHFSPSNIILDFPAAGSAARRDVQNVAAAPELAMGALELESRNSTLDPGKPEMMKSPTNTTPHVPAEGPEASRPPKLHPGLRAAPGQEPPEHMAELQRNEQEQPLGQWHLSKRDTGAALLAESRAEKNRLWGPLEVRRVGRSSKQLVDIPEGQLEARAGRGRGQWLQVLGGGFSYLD

Sequence of unfolded N-terminal region of human PrP, HuPrP(23-145) (P04156 23-145): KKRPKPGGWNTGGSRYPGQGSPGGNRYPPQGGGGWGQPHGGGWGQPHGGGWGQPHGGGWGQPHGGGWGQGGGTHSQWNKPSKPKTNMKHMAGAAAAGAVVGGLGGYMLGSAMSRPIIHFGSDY

The Kd is the equilibrium constant for the complex coming apart. For orientation: koff means a measure of how fast the partners let go of each other. As a reminder, the kon is the rate constant with which the complex forms. “unfolded N-terminal region of human PrP, HuPrP(23-145) (from UniProt P04156 23-145) (domain or fragment)”: the Kd came out at 3.6 nM, the koff worked out at 4.78e-05 s⁻¹ and the kon was determined as 13200 M⁻¹ s⁻¹.
